Values quoted from earlier work, collected in paper PMC4604100, “Melanocortin agonists stimulate lipolysis in human adipose tissue explants but not in adipocytes” (BMC Research Notes, 2015).

Tested on: MC1R
Settings: ref [24]
Description: It is still rather unclear as to what extent peripherally expressed MCRs regulate metabolism. […] In addition, POMC expression has been identified in peripheral tissues such as the skin, testes, ovaries, placenta, adrenal glands, gastrointestinal tract, immune cells and tumors. The peripheral melanocortin system was initially examined f ...

B1: Agouti/ASIP: agouti/agouti signaling protein, endogenous melanocortin receptor antagonist (protein, UniProt P42127 23-132, looked up)
Agouti-signaling protein: HLPPEEKLRDDRSLRSNSSVNLLDVPSVSIVALNKKSKQIGRKAAEKKRSSKKEASMKKVVRPRTPLSAPCVATRNSCKPPAPACCDPCASCQCRFFRSACSCRVLSLNC
In the case of B1, the “antagonism on MC1R (in words)” value is given as “high affinity antagonist”.
